Data on one molecule can be found in article PMC7356578.

The target in experiment [1] is KLK1-99Lm (KLK1 with nine residues of its 99 loop deleted) (human) (UniProt P06870). Description: kinetics of protease inhibition (discontinuous assay); pseudo-first-order; 10 nM protease with 100-500 nM kallistatin variant, PBS, 0.1% PEG 8000, 22 ± 1 °C; apparent second-order rate constant kapp from kobs; k2 = kapp × SI.
Experiment [2] addresses KLK1-70Lm (KLK1 with D75, D76 and E77 replaced by arginines) (human). The experiment is described as above.
The target is the same in experiment [3]. Kind of experiment: kinetics of protease inhibition (discontinuous assay); 1 µM rKAL preincubated 5 min with LMWH (0-2.5 mg/mL) at room temperature, then 10 nM KLK1-70Lm; kobs plotted against LMWH.

B1: Recombinant human kallistatin (rKAL), wild type (natural protein)
chain: GSPSLKIAPANADFAFRFYYLIASETPGKNIFFSPLSISAAYAMLSLGACSHSRSQILEGLGFNLTELSESDVHRGFQHLLHTLNLPGHGLETRVGSALFLSHNLKFLAKFLNDTMAVYEAKLFHTNFYDTVGTIQLINDHVKKETRGKIVDLVSELKKDVLMVLVNYIYFKALWEKPFISSRTTPKDFYVDENTTVRVPMMLQDQEHHWYLHDRYLPCSVLRMDYKGDATVFFILPNQGKMREIEEVLTPEMLMRWNNLLRKRNFYKKLELHLPKFSISGSYVLDQILPRLGFTDLFSKWADLSGITKQQKLEASKSFHKATLDVDEAGTEAAAATSFAIKFFSAQTNRHILRFNRPFLVVIFSTSTQSVLFLGKVVDPTKP
For B1, the second-order association rate constant in experiment [1] was found to be 200 M⁻¹ s⁻¹. The k2 (second-order rate constant) in experiment [2] was determined as 1800 M⁻¹ s⁻¹. This molecule also returned a fold acceleration of the inhibition rate with LMWH against no heparin in experiment [3] of 5 fold.
